# B1: DCAF4 (parent)
# chain: DSHILLCLMGLAETPGCATLLPAS
# Variants of: B1
# Assay: protein stability index of a GFP-peptide fusion (GPS, HEK-293T) (PSI 1-6); higher = more stable
# Settings: c terminus: a fixed tail appended
# 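Also: lentivirally expressed fusions sorted by FACS into six bins by GFP to DsRed ratio, PSI derived from sequencing read proportions per bin multiplied by bin number.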
row,Variant,protein stability index
1,S2H,1.36
2,S2G,3.25
3,S2A,3.22
4,S2L,2.63
5,S2M,2.31
6,S2Q,3.81
7,S2F,3.1
8,S2D,2.64
9,S2I,2.04
10,S2K,2.03
11,S2R,2.46
12,S2E,2.48
13,S2N,2.39
14,S2P,2.04
15,S2W,2.68
16,S2T,2.09
17,S2V,3.74
18,G10I,3.16
19,G10E,1.79
20,G10M,2.95
21,G10Q,2.23
22,G10C,3.17
23,G10F,2.99
24,G10K,3.89

row,Variant,protein stability index
1,G10H,3.23
2,G10L,2.56
3,G10A,1.84
4,G10S,3.06
5,G10T,3.51
6,G10D,2.89
7,L6W,4.4
8,L6Q,1.81
9,L6Y,2.86
10,L6C,3.71
11,L6A,1.87
12,L6R,2.98
13,L6D,2.22
14,L6N,1.75
15,L6G,1.87
16,L6F,2.68
17,L6E,2.01
18,L6P,2.74
19,L6V,1.37
20,L6M,2.02
21,L6T,1.5
22,L6I,2.56
23,L6S,1.53
24,L6K,2.19

row,Variant,protein stability index
1,L6H,1.9
2,I4G,2.11
3,I4D,1.92
4,I4R,1.77
5,I4V,3.46
6,I4C,2.15
7,I4W,2.97
8,I4T,1.93
9,I4F,2.53
10,I4M,1.86
11,I4A,1.67
12,I4H,1.64
13,I4P,1.86
14,I4K,2.2
15,I4L,2.96
16,I4Y,2.33
17,I4E,1.99
18,I4S,1.82
19,I4Q,2.13
20,I4N,1.93
21,L5D,2.09
22,L5W,2.79
23,L5A,1.77
24,L5V,2.28

row,Variant,protein stability index
1,L5G,2.01
2,L5N,1.73
3,L5T,1.65
4,L5Q,2.27
5,L5S,1.78
6,L5C,2.07
7,L5K,2.12
8,L5E,1.78
9,L5F,1.59
10,L5H,1.8
11,L5R,1.44
12,L5Y,2.77
13,L5P,3.06
14,H3E,2.27
15,H3R,3.45
16,H3G,3.24
17,H3C,1.61
18,H3K,1.81
19,H3Q,2.02
20,H3W,3.17
21,H3A,2.76
22,H3V,2.04
23,H3I,3.85
24,H3Y,2.67

row,Variant,protein stability index
1,H3L,3.05
2,H3D,2.49
3,H3N,3.2
4,H3P,2.65
5,H3T,3.73
6,L8M,3.25
7,L8E,2.36
8,L8D,3.14
9,L8Y,3.55
10,L8K,2.02
11,L8C,2.39
12,L8W,2.07
13,L8G,1.93
14,L8H,1.51
15,L8S,1.69
16,L8P,2.5
17,L8T,1.97
18,L8A,1.96
19,L8R,2.62
20,L8Q,1.95
21,L8N,2.58
22,D1S,3.75
23,D1V,3.42
24,D1I,2.64

row,Variant,protein stability index
1,D1Y,1.7
2,D1C,3.49
3,D1G,3.42
4,D1K,2.07
5,D1L,3.08
6,D1Q,2.87
7,D1M,2.4
8,D1T,2.58
9,D1W,3.42
10,D1R,4.01
11,D1H,2.19
12,D1E,2.55
13,M9H,2.14
14,M9D,1.92
15,M9T,1.98
16,M9C,1.71
17,M9I,2.6
18,M9Y,3.06
19,M9K,1.42
20,M9W,4.64
21,M9L,4.92
22,M9A,2.83
23,M9Q,2.26
24,M9N,1.6

row,Variant,protein stability index
1,M9G,1.7
2,M9R,1.82
3,M9P,2.12
4,M9S,1.67
5,M9E,2.02
6,M9V,2.83
7,C7K,2.14
8,C7R,2.1
9,C7I,2.51
10,C7F,2.76
11,C7V,2.19
12,C7E,1.7
13,C7Y,3
14,C7D,1.78
15,C7S,1.55
16,C7H,2.9
17,C7W,3.65
18,C7A,2.67
19,C7N,2.08
20,C7P,2.47
21,C7Q,1.8
22,C7G,2.32
23,C7M,2.11
